Assay results published in patent publication US20130288266A1 (ROCHE DIAGNOSTICS OPERATIONS, published 2013).
“And” between values parts separate entries of the source, which are not always exact repeats. Equal values may be shown once.

Assays:
[1] = molecular target: T1, human_HER3(1242-1267)-Bi-PEG-amide (human, C-terminal Bi-PEG-amide (biotin); singly grafted on streptavidin); assay: SPR kinetic screening (Biacore A100), mAb captured by anti-mouse IgG Fc, peptide singly grafted on streptavidin injected
T1 construct: Injected as analyte, singly grafted on streptavidin
T1 peptide: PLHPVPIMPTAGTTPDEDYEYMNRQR
Experimental: A Biacore™ A100 instrument under control of the software version V1.1 is used. A Biacore™ CM5 chip is mounted into the instrument and is hydrodynamically addressed conditioned according to the manufacturer's instructions. As a running buffer an HBS-EP buffer is used (10 mM HEPES (pH 7.4), 150 mM NaCl, 1 mM EDTA, 0.05% (w/v) P20). A polyclonal rabbit anti-mouse IgG Fc capture antibody is immobilized at 30 μg/ml in 10 mM sodium acetate buffer (pH 4.5) to spots 1, 2, 4 and 5 in flow cells 1, 2, 3 and 4 at 10,000 RU. The antibody is covalently immobilized via NHS/EDC chemistry. The sensor is deactivated thereafter with a 1 M ethanolamine solution. Spots 1 and 5 are used for the determination and spots 2 and 4 are used as reference. Prior to application to the sensor chip the hybridoma supernatants containing mAbs are diluted 1:2 in HBS-EP buffer. The diluted solution is applied at a flow rate of 30 μl/min for 1 min. […] Thereafter, the signal is recorded for 5 min dissociation time. The sensor is regenerated by injecting a 10 mM glycine-HCl solution (pH 1.7) for 2 min, at a flow rate of 30 μl/min. The dissociation rate constant kd (1/s) is calculated according to a Langmuir model using the evaluation software according to the manufacturer's instructions.

[2] = molecular target: T2, phosphorylated IR in IR overexpressing 3T3 cells stimulated with Insulin (UniProt P06213 28-1382, limits assumed, phosphorylated after stimulation with 100 ng/ml Insulin); assay: IHC (Ventana BenchMark XT), ssFab' on 8xC18 linker, FFPE 3T3 cells
T2 construct: whole, on cells; also called pIR (cells)
Experimental: (§1) In order to test the specificity of the anti-pIGF-1R dual binder molecule an elaborate test system based on formalin-fixed paraffin-embedded (FFPE) 3T3 cells was used. 3T3 cells had been stably transfected with either IGF-1R or IR expression vectors. Cells were fixed with formalin and embedded in paraffin according to standard protocols. Prior to fixation cells were stimulated with 100 ng/ml of either IGF-1 or Insulin to induce IGF1-R or IR phosphorylation or were left untreated.
(§2) A biotin label within the linker molecule served as a detection tag for the streptavidin-based Ventana iVIEW DAB detection kit.

[3] = molecular target: T3, IGF-1R in untreated IGF-1R overexpressing 3T3 cells (UniProt P08069 31-1367, limits assumed); assay: as above
T3 construct: whole, on cells; also called IGF-1R (unstimulated)
Experimental: as §1, §2

[4] = molecular target: T4, IR (insulin receptor) in untreated IR overexpressing 3T3 cells (UniProt P06213 28-1382, limits assumed); assay: as above
T4 construct: whole, on cells; also called IR (unstimulated)
Experimental: as §1, §2

[5] = molecular target: T5, IGF-1R(1340-1366)[1346-pTyr]amid, phosphorylated IGF-1R peptide (phosphotyrosine at 1346 (IGF-1R numbering); C-terminal amide; in Examples 2.6 and 2.7 a biotinylated PEG-linker bound via glutamic acid at position 1340); assay: SPR (Biacore 3000, 25 C), dual binder on biotinylated linker on SA chip, peptide injected; T40 linker (linker 10, spacer T20-Biotin-dT-T20)
T5 construct: also called pIGF-1R peptide; pIGF-1R
T5 peptide: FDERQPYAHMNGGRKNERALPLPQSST

[6] = molecular target: T5, IGF-1R(1340-1366)[1346-pTyr]amid, …; assay: SPR (Biacore 3000, SA sensor, 25 C): both ssFab' hybridized on the immobilized biotinylated T40-Bi linker, peptide injected as analyte
Experimental: (§3) As a control, buffer was injected instead of the ssFabs.
(§4) The system was regenerated after each concentration step with a 12 sec pulse of 250 mM NaOH and was reloaded with ssFab′ ligand.

[7] = molecular target: T6, IGF-1R(1340-1366)amid, non-phosphorylated IGF-1R peptide (C-terminal amide; in Example 2.6 a biotinylated PEG-linker bound via glutamic acid at position 1340); assay: as above
T6 construct: also called Glu(Bi-PEG-1340]amid
T6 peptide: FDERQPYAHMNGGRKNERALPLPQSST
Experimental: as §3, §4

[8] = molecular target: T5, IGF-1R(1340-1366)[1346-pTyr]amid, …; assay: SPR (Biacore 3000, SA sensor, 25 C): both ssFab' hybridized on the immobilized biotinylated T0-Bi linker, peptide injected as analyte
Experimental: as §3, §4

[9] = molecular target: T6, IGF-1R(1340-1366)amid, …; assay: as above
Experimental: as §3, §4

[10] = molecular target: T5, IGF-1R(1340-1366)[1346-pTyr]amid, …; assay: SPR (Biacore 3000, 25 C), dual binder on biotinylated linker on SA chip, peptide injected; T0 linker (no spacer)
[11] = molecular target: T5, IGF-1R(1340-1366)[1346-pTyr]amid, …; assay: SPR (Biacore 3000, SA sensor, 25 C): only ssFab' 1.4.168 hybridized on the immobilized biotinylated T0-Bi linker, peptide injected as analyte
Experimental: as §3, §4

[12] = molecular target: T6, IGF-1R(1340-1366)amid, …; assay: as above
Experimental: as §3, §4

[13] = molecular target: T5, IGF-1R(1340-1366)[1346-pTyr]amid, …; assay: SPR (Biacore 3000, SA sensor, 25 C): only ssFab' 1.4.168 hybridized on the immobilized biotinylated 8xC18 linker, pIGF-1R peptide injected as analyte
Experimental: (§5) 89 RU amino-PEO-biotin were captured on the reference flow cell 1.
(§6) The system was regenerated after each concentration step with a 12 sec pulse of 250 mM NaOH and was reloaded with ssFab ligand.

[14] = molecular target: T5, IGF-1R(1340-1366)[1346-pTyr]amid, …; assay: SPR (Biacore 2000, 25 C), biotinylated peptide on SA chip, 100 nM ssFab' injected
Experimental: (§7) 100 nM of analyte (i.e. in these experiments a bi-valent dual binding agent) in solution was injected at 50 μl/min for 240 sec association time and dissociation was monitored for 500 sec. Efficient regeneration was achieved by using a 1 min injection step at 50 μl/min with 80 mM NaOH. Flow cell 1 served as a reference. A blank buffer injection was used instead of an antigen injection to double reference the data by buffer signal subtraction.
(§8) (The digoxigenylation of the middle thymidine (T(-Dig)) in the above linkers is without relevance to these experiments.)
(§9) Report points were set at the end of the analyte association phase (Binding Late, BL) and at the end of the analyte dissociation phase (Stability Late, SL) to monitor the response unit signal heights of each interaction. The dissociation rates kd (1/s) were calculated according to a linear 1:1 Langmuir fit using the Biacore™ evaluation software 4.1. The complex halftimes in minutes were calculated upon the formula In(2)/(60*kd).

[15] = molecular target: T6, IGF-1R(1340-1366)amid, …; assay: as above
Experimental: as §7, §8, §9

[16] = molecular target: T5, IGF-1R(1340-1366)[1346-pTyr]amid, …; assay: SPR (Biacore 3000, SA sensor, 25 C): only ssFab' 1.4.168 hybridized on the immobilized biotinylated T40-Bi linker, peptide injected as analyte
Experimental: as §3, §4

[17] = molecular target: T6, IGF-1R(1340-1366)amid, …; assay: as above
Experimental: as §3, §4

[18] = molecular target: T2, phosphorylated IR in IR overexpressing …; assay: IHC (Ventana BenchMark XT), FFPE 3T3 cells
Experimental: as §1, §2

[19] = molecular target: T4, IR (insulin receptor) in untreated IR …; assay: IHC (Ventana BenchMark XT), FFPE 3T3 cells
Experimental: as §1, §2

[20] = molecular target: T5, IGF-1R(1340-1366)[1346-pTyr]amid, …; assay: SPR (Biacore 3000, SA sensor, 25 C): both ssFab' hybridized on the immobilized biotinylated 8xC18 linker, pIGF-1R peptide injected as analyte
Experimental: as §5, §6

[21] = molecular target: T5, IGF-1R(1340-1366)[1346-pTyr]amid, …; assay: SPR (Biacore 3000, 25 C)
[22] = molecular target: T5, IGF-1R(1340-1366)[1346-pTyr]amid, …; assay: SPR (Biacore 3000, 25 C), ssFab's on biotinylated 8xC18 linker on SA chip, pIGF-1R peptide injected
Experimental: as §6

[23] = molecular target: T5, IGF-1R(1340-1366)[1346-pTyr]amid, …; assay: SPR sandwich assay (Biacore T100, 13 C), FIG. 7
Experimental: A Biacore™ T100 instrument (GE Healthcare) was used with a Biacore™ CM5 sensor mounted into the system. The sensor was preconditioned by a 1 min injection at 100 μl/min of 0.1% SDS, 50 mM NaOH, 10 mM HCl and 100 mM H3PO4.
The Biacore™ T100 System was driven under the control software V1.1.1. Polyclonal rabbit IgG antibody <IgGFCγM>R (Jackson ImmunoResearch Laboratories Inc.) at 30 μg/ml in 10 mM Na-Acetate pH 4.5 was immobilized at 10 000 RU on the flow cells 1, 2, 3, and 4, respectively, via EDC/NHS chemistry according to the manufacturer's instructions. Finally, the sensor surface was blocked with 1M ethanolamine. The complete experiment was driven at 13° C.
3 μM of an IgG fragment mixture (of IgG classes IgG1, IgG2a, IgG2b, IgG3) containing blocking solution was injected at 30 μl/min for 5 min.

T4 sequence (P06213 28-1382 limits assumed): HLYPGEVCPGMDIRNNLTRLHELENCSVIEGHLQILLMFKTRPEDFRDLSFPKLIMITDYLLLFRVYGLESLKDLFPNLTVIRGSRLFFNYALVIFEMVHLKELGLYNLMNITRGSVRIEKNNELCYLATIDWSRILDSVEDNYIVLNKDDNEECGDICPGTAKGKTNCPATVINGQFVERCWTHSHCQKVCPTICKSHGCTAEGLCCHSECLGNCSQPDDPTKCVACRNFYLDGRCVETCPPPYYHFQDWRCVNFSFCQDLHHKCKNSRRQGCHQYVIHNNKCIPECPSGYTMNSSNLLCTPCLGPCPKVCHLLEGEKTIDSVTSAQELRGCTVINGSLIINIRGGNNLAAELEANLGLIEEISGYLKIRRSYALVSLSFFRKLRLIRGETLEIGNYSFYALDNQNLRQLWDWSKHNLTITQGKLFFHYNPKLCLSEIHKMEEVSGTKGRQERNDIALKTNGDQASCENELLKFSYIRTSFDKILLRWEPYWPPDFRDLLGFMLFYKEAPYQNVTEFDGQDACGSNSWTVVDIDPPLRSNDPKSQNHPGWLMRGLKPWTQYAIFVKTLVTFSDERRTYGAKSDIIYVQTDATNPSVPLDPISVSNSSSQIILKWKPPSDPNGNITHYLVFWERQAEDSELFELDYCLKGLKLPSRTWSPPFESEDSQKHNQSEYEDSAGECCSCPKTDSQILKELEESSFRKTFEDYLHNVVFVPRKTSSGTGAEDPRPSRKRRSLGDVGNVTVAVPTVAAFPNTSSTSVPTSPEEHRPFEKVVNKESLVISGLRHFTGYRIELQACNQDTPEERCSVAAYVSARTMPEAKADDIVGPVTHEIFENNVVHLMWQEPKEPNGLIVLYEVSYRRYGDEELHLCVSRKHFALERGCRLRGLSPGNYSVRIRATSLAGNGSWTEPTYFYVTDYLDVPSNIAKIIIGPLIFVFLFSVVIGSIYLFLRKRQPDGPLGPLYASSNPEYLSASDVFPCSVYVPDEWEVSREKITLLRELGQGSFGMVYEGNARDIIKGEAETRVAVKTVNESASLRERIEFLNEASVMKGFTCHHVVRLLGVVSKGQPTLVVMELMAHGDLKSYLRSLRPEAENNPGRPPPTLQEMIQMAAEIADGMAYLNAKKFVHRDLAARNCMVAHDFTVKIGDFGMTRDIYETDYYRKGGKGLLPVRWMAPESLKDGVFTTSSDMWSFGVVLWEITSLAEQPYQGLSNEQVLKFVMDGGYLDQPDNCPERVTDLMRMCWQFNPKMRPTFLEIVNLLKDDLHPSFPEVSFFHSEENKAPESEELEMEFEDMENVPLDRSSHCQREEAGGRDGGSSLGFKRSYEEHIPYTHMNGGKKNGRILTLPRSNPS
T2 sequence (P06213 28-1382 limits assumed): as above
T3 sequence (P08069 31-1367 limits assumed): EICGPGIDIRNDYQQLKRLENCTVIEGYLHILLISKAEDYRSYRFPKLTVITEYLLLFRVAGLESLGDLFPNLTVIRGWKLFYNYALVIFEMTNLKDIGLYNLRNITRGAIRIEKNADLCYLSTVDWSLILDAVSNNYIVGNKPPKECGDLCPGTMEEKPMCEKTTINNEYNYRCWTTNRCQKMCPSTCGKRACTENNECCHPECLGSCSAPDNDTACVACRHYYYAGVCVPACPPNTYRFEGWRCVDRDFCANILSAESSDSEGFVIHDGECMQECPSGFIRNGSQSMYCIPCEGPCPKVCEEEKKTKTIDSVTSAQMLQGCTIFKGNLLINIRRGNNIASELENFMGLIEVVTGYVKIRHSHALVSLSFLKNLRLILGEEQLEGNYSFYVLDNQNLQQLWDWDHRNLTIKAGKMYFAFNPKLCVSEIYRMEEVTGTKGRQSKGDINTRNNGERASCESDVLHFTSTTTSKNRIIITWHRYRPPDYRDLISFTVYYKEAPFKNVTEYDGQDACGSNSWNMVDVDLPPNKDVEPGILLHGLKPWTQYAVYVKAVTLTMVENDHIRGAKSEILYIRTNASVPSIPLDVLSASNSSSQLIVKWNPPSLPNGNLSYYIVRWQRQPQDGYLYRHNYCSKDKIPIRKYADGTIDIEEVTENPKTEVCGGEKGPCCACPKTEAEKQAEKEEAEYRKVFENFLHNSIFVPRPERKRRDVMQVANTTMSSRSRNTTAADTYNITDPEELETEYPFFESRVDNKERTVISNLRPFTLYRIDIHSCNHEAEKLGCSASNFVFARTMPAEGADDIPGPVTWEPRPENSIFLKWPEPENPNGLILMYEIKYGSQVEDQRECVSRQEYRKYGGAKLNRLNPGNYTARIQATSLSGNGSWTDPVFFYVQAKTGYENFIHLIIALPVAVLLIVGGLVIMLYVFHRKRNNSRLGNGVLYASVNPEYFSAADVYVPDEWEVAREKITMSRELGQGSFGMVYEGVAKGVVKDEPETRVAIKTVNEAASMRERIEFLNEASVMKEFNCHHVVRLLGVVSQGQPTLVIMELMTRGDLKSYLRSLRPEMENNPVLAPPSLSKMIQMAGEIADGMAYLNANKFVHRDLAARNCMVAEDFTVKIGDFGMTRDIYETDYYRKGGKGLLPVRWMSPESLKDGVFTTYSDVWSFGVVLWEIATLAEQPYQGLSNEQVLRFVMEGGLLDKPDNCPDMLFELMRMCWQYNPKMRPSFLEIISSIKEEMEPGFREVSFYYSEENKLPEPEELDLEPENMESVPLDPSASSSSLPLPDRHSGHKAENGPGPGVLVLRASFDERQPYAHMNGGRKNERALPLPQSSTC

B1: monoclonal antibody 7.2.32 directed against HER3(1242-1267) (antibody, V domains shown)
VH: EVQLQESGGGLVQPKGSLQLSCAASGFTFNTYAMHWVRQAPGKGLEWVARIRTESSDYATDYADSVKDRFIISRDDSQNMLYLQMNNLKSEDTAIYYCVRSSGFDYWGQGTTLTVSS
VL: DIQMTQSPSLPVSLGDQASISCRSSQSLVHDNGNTYLHWFLQKPGQSPKLLIYKVSNRFSGVPDRFGGSGSGTDFTLKISGVEAEDLGVYFCSQGTHVPTFGGGTKLEIK
notes: Mouse monoclonal IgG from hybridoma supernatant, captured by anti-mouse IgG Fc; also called mAb 7.2.32
Binder B1 has a koff [1] of 0.0023 s⁻¹.

B2: ssFab' 30.4.33 (Fab' of mAb 30.4.33 linked to ssDNA) (Fab, V domains shown)
VH: EVQLQESGPEVAKPGASVKMSCKASGYTFTDYIIHWVKQRPGQDLEWIGYINPYNDKSKYNEKFKDKATLTSDRSSSTSYMDLSTLTSDDSAVYYCTRHGYYRSDGFDYWGQGTTLTVSS
VL: DIVLTQSPTIMSASPGEKVTMTCRASSSVSSSSLHWYQQKPGSSPKLWIYSTSTLASGVPARFSGSGSGTSYSLTISGVETEDAATYYCQQYGTSPYTFGSGTKVDIK
modifications: ssDNA oligonucleotide coupled to the Fab' hinge region
B2: no binding (tested: 0.5 µg/ml) [2]; no binding (tested: 0.5 µg/ml) [3]; no binding (tested: 0.5 µg/ml) [4].

B3: T40-T-Bi linker dual binder with ssFab' 8.1.2 and ssFab' 1.4.168 (linker 10 of example 2.4) (bispecific antibody, V domains shown)
VH 1: EVQLQQSGPALVKPGASVKMSCKASGFTFTSYVIHWVKQKPGQGLEWIGYLNPYNDNTKYNEKFKGKATLTSDRSSSTVYMEFSSLTSEDSAVYFCARRGIYAYDHYFDYWGQGTSLTVSS
VL 1: QIVLTQSPAIMSASPGEKVTLTCSASSSVNYMYWYQQKPGSSPRLLIYDTSNLASGVPVRFSGSGSVTSYSLTISRMEAEDAATYYCQQWSTYPLTFGAGTKLELK
VH 2: QCDVKLVESGGGLVKPGGSLKLSCAASGFTFSDYPMSWVRQTPEKRLEWVATITTGGTYTYYPDSIKGRFTISRDNAKNTLYLQMGSLQSEDAAMYYCTRVKTDLWWGLAYWGQGTLVTVSA
VL 2: QLVLTQSSSASFSLGASAKLTCTLSSQHSTYTIEWYQQQPLKPPKYVMELKKDGSHTTGDGIPDRFSGSSSGADRYLSISNIQPEDESIYICGVGDTIKEQFVYVFGGGTKVTVLG
modifications: 17 mer ssDNA (SEQ ID NO:6, fluorescein) on hinge cysteine; 19 mer ssDNA (SEQ ID NO:5, Cy5) on hinge cysteine
notes: Two Fab'-ssDNA conjugates hybridised on biotinylated 77-mer DNA linker 10 (T20-Biotin-dT-T20) captured on a streptavidin chip; also called T40-Bi
B3 was tested, and the Kd [5] was 0.01 nM, the Kd [6] was 0.0125 nM and the Kd [7] was 0.973 nM and 1 nM. For the same binder, the t1/2 diss [7] was 4.3 min.

B4: T0 dual binding agent with ssFab' 8.1.2 and ssFab' 1.4.168 on the biotinylated T0-Bi 37-mer ssDNA-Linker (linker 17 of example 2.4) (bispecific antibody, V domains shown)
VH 1: B3 VH 1
VL 1: B3 VL 1
VH 2: B3 VH 2
VL 2: B3 VL 2
modifications: 17 mer ssDNA (SEQ ID NO:6, fluorescein) on hinge cysteine; 19 mer ssDNA (SEQ ID NO:5, Cy5) on hinge cysteine
For B4, the Kd [8] was 0.0344 nM, the Kd [9] was 1.2 nM and 1 nM and the t1/2 diss [9] was 5 min. The Kd [10] was 0.03 nM.

B5: ssFab' 1.4.168 (Fab' of mAb 1.4.168 covalently linked to 17 mer ssDNA) (Fab, V domains shown)
VH: DVKLVESGGGLVKPGGSLKLSCAASGFTFSDYPMSWVRQTPEKRLEWVATITTGGTYTYYPDSIKGRFTISRDNAKNTLYLQMGSLQSEDAAMYYCTRVKTDLWWGLAYWGQGTLVTVSA
VL: B3 VL 2
modifications: 17 mer ssDNA comprising SEQ ID NO:6 with fluorescein, coupled through maleimide to a cysteine of the Fab' hinge region
notes: Fab' from pepsin cleavage and cysteamine reduction of a murine monoclonal IgG; also called ssFab' 1.004.168; fluorescein-ssFab' 1.4.168
With B5 the Kd [11] was 2.59 nM and 3 nM, the t1/2 diss [11] was 4 min and the Kd [12] was 1.35 nM and 1 nM. The t1/2 diss [12] was 4 min, the Kd [13] was 2.96 nM and 3 nM and the T1/2 dis [14] was 3 min. The T1/2 dis [15] was 3 min, the binding result [2] was “no binding (tested: 0.5 µg/ml)” and the binding result [4] was “no binding (tested: 0.5 µg/ml)”. The Kd [16] was 2.14 nM and 2 nM, the Kd [17] was 1.1 nM and 1 nM and the t1/2 diss [17] was 3 min.

B6: anti-pIGF-1R dual binder composed of ssFab' 1.4.168, ssFab' 30.4.33 and an 8xC18 linker molecule (linker 14 of example 2.4) (bispecific antibody, V domains shown)
VH 1: B2 VH
VL 1: B2 VL
VH 2: B3 VH 2
VL 2: B3 VL 2
modifications: 17 mer ssDNA (SEQ ID NO:6) on hinge cysteine; ssDNA oligonucleotide on the Fab' hinge region
notes: Two Fab'-ssDNA conjugates hybridised on biotinylated linker 14 ((Spacer C18)4-(Biotin-dT)-(Spacer C18)4)
B6 was tested, and the binding result [18] was “no binding (tested: 0.5 µg/ml per ssFab')”, the binding result [19] was “no binding (tested: 0.5 µg/ml per ssFab')” and the Kd [20] was 0.0112 nM and 0.011 nM. For the same binder, the kon [20] was 1.24e+06 M⁻¹ s⁻¹, the “fold affinity improvement compared to ssFab' 1.4.168 alone” value [21] was 300 fold and the “fold affinity improvement compared to ssFab' 30.4.33 alone” value [21] was 200 fold. The “fold lower off-rate than ssFab' 1.4.168” value [21] was 230 fold, the “fold lower off-rate than ssFab' 30.4.33” value [21] was 110 fold and the Kd [22] was roughly 0.01 nM. It also gave a koff [22] of 1.39e-05 s⁻¹.

B7: murine monoclonal antibody M-1.4.168-IgG (antibody, V domains shown)
VH: B5 VH
VL: B3 VL 2
notes: Whole murine IgG from hybridoma; also called mAb 1.4.168; M-1.004.168-IgG
B7: binds [23].
